Assay results reported in patent US8431161B2, “Microparticle and pharmaceutical composition thereof” (Toray Industries, Inc., priority 2008, dated 2013).
Read-outs that look alike come from different tables or passages of the source.

What was measured:
[1] = mouse, in vivo
Experimental: (§1) The supernatant was centrifugally separated again for 5 minutes at 80×g, and the remaining particles were precipitated, and the supernatant was removed.

[2] = Hypodermic administration of Exendin-4-encapsulating microparticles in SCID mouse, Exendin-4 in plasma; assay type: in vivo; conditions: 700 μg/0.2 ml
Experimental: as §1
This solution was hypodermically injected in the back of 8-week-old SCID mouse (CB17/lcr-Prkdcscid/CrlCrlk) (from Crea Japan Inc.), and the blood was sampled at specific intervals from the caudal vein.

[3] = mouse, in vivo; remark: listed apart in the source
Experimental: 300 mg of the prepared microparticles was suspended and dispersed in 3 ml of phosphate physiological buffer solution (PBS), and centrifuged for 5 minutes at 80×g to precipitate microparticles, and the supernatant was transferred into other tube. The supernatant was centrifuged again for 5 minutes at 80×g to precipitate the remaining particles, and the supernatant was removed. By re-dispersing in 1 ml of PBS after first time of centrifugal precipitation and second time of centrifugal precipitation, the same centrifugal cleaning operation was repeated three times, and the growth hormone not encapsulated in the microparticles were removed. Finally, the precipitation was dispersed again in 200 μl of PBS, and an administration solution was obtained.
This solution was injected hypodermically at two positions in the back of 10-week male Balb/C mouse, and the blood was sampled at specific time intervals from the caudal vein. In the sampled blood, heparin of final concentration of 3.31 U/ml was added, and plasma was collected by centrifugal separation for 5 minutes at 5,000 rpm, and the concentration of growth hormone in plasma was measured by using an ELISA kit.
By way of comparison, a non-granulated human growth hormone protein solution (700 μg/0.2 ml) was hypodermically administered in mouse, and the blood was sampled similarly. […]

[4] = Body weight changes of pituitary gland extracted mouse after hGH microparticles; assay type: in vivo; conditions: hypodermic administration

## Exendin-4 [non-granulated Exendin-4]
[1]
  time in which blood level dropped to a level before administration: a day
[2]
  blood level in 1 hour after administration (Exendin-4 in plasma): very high

## human growth hormone [non-granulated human growth hormone]
[3]
  time in which blood level dropped to a level before administration: a day
[4]
  body weight increase: about 5%
